Values quoted from earlier work in publication PMC6470598.

Target: CTLA-4 (Homo sapiens) (UniProt P16410)
Sequence of UniProt P16410 (P16410 36-161): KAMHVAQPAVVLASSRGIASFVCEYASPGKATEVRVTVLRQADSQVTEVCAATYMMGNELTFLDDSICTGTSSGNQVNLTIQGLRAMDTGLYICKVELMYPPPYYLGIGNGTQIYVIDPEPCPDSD

- Kd: 5.9 nM
Substance: tremelimumab
